Reference: the supplement of paper PMC10065799, “High-throughput profiling of sequence recognition by tyrosine kinases and SH2 domains using bacterial peptide display” (eLife, 2023)

Assays:
[1] = target: FGFR1 (UniProt P11362); assay: phosphorylation enrichment, bacterial display (enrichment ratio); higher = better substrate or ligand; peptides without Tyr show the background
[2] = target: MERTK (UniProt Q12866); assay: as above
[3] = target: Fyn (UniProt P06241); assay: as above
[4] = tested on: AncSZ; assay: as above
[5] = tested on: c-Src; assay: as above
[6] = target: Jak2 (UniProt O60674); assay: as above
[7] = target: EPHB1 (UniProt P54762); assay: as above
[8] = tested on: Fer (mouse); assay: as above
[9] = target: Fes (UniProt P07332); assay: as above
[10] = target: Hck (UniProt P08631); assay: as above
[11] = target: FGFR3 (UniProt P22607); assay: as above
[12] = tested on: c-Abl (mouse); assay: as above
[13] = target: EPHB2 (UniProt P29323); assay: as above
[14] = target: SHP2-C SH2; assay: SH2 binding enrichment of the phosphorylated peptide, bacterial display (enrichment ratio); higher = better substrate or ligand; peptides without Tyr show the background
[15] = target: Grb2 SH2 (UniProt P62993); assay: as above
[16] = target: c-Src SH2; assay: as above
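For SH2 binding enrichment of the phosphorylated peptide, bacterial display in this document: peptide library displayed on the E. coli surface as eCPX fusions, selected cells deep-sequenced, score is each peptide's frequency after selection divided by its frequency in the input.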
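For phosphorylation enrichment, bacterial display in this document: 11-residue human phosphosite peptides and single-mutation variants displayed on the E. coli surface, counted by deep sequencing, each peptide's frequency after selection divided by its frequency in the unselected input library; frequency after pTyr selection over input frequency; kinase dosed for 20-30% of maximal phosphorylation in three min.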

Chain of EPHB1 (P54762 whole entry, looked up): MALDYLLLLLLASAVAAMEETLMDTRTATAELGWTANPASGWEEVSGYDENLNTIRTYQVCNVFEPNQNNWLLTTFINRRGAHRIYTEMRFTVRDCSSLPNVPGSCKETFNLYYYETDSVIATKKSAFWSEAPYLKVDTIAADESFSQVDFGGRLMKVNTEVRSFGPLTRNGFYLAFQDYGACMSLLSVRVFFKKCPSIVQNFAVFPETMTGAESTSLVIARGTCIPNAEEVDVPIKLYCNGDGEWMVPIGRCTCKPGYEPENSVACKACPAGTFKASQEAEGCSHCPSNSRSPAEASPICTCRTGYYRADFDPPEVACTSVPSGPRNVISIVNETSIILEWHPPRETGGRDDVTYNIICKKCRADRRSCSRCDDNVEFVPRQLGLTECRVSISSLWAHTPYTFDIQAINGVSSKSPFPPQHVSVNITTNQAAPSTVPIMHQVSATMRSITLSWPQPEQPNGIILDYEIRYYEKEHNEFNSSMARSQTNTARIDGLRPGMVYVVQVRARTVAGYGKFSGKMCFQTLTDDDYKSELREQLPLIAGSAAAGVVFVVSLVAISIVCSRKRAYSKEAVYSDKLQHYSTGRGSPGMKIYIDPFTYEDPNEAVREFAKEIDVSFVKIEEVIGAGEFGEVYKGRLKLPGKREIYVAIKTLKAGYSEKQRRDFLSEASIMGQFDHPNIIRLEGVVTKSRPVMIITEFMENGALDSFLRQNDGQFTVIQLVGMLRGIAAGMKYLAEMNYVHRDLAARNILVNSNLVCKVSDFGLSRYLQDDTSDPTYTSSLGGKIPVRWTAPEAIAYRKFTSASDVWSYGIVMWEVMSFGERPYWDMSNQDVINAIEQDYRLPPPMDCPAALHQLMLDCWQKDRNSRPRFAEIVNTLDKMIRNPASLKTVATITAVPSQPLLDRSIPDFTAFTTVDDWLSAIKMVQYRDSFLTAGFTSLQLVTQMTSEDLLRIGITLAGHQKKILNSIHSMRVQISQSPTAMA
Chain of FGFR3 (P22607 whole entry, looked up): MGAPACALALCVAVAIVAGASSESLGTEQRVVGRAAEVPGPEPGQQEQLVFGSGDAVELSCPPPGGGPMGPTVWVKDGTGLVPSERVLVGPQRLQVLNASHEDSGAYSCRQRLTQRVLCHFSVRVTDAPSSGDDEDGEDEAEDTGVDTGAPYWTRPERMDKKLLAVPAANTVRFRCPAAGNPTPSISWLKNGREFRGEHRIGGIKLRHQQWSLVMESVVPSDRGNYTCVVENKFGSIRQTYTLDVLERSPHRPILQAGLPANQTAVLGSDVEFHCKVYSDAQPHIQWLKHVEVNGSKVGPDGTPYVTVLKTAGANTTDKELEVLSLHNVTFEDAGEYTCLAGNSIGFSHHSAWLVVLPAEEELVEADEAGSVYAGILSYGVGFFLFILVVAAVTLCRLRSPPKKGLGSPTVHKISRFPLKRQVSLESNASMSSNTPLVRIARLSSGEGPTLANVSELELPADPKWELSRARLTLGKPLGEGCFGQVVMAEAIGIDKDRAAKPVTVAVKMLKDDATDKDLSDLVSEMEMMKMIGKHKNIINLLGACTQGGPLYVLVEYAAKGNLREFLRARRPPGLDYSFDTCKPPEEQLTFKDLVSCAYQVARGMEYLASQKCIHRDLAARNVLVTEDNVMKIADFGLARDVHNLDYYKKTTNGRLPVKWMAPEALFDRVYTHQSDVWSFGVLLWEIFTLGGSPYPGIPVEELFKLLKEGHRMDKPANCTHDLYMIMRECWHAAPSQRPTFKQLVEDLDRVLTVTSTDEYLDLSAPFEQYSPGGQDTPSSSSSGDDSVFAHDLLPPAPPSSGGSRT
Chain of Hck (P08631 whole entry, looked up): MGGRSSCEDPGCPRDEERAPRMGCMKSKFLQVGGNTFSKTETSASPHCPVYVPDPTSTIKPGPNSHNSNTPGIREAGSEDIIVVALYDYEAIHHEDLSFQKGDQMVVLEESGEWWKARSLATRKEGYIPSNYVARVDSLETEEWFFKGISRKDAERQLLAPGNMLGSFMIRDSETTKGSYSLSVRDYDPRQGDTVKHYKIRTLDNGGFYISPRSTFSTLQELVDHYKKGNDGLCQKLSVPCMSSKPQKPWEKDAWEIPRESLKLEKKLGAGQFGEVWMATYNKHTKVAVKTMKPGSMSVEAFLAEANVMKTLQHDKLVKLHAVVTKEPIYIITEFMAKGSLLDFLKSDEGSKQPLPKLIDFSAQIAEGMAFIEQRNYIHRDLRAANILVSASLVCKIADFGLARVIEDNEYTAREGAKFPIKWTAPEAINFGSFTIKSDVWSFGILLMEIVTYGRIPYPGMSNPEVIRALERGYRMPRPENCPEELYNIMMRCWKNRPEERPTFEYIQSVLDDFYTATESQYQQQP
Chain of EPHB2 (P29323 whole entry, looked up): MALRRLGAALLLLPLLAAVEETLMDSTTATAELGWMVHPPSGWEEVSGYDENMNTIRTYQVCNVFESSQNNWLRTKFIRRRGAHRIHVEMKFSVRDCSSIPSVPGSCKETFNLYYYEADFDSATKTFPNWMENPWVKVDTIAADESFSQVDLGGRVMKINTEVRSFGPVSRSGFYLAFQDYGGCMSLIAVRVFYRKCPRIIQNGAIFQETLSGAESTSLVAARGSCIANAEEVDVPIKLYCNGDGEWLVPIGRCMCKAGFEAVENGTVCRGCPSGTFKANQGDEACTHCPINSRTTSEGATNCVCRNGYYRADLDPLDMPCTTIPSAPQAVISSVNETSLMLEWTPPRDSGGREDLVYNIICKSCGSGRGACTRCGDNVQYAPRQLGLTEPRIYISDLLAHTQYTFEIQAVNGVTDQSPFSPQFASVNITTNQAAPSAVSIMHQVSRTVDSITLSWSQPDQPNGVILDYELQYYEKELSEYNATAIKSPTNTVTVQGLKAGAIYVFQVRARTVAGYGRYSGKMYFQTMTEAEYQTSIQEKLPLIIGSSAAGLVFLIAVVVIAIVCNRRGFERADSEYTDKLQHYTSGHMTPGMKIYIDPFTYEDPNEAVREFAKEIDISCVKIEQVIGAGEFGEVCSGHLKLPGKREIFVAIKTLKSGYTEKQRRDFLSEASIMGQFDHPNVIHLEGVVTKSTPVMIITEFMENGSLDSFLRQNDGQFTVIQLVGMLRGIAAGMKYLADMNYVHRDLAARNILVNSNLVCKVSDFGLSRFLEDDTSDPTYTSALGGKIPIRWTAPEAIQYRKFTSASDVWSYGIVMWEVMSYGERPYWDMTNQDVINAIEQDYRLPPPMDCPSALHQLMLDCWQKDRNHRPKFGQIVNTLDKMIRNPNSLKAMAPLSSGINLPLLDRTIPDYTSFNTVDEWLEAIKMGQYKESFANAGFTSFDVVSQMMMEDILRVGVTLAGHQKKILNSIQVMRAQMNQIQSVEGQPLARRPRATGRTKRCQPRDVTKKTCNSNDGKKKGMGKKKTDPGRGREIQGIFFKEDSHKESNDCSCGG
Chain of Grb2 SH2 (P62993 whole entry, looked up): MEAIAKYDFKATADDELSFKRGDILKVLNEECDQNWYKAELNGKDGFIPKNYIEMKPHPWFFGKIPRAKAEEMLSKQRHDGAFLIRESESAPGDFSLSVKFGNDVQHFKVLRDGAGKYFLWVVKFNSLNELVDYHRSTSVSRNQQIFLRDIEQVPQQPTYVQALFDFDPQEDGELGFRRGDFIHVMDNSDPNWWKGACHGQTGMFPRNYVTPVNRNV
Chain of Fyn (P06241 whole entry, looked up): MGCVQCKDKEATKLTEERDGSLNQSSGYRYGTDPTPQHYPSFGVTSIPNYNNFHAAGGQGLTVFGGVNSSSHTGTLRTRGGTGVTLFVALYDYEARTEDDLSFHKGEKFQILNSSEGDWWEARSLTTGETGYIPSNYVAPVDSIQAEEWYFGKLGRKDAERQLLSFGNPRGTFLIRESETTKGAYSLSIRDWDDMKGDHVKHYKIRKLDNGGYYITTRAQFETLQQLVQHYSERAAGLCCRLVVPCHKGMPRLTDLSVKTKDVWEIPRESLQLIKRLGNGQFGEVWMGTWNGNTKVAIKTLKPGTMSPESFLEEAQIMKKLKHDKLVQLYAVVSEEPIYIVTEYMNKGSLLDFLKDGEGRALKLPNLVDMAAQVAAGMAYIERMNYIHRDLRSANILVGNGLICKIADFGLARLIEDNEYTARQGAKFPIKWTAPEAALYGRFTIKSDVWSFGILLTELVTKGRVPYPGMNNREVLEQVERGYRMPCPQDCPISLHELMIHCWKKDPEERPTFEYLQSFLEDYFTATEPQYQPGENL
Chain of FGFR1 (P11362 whole entry, looked up): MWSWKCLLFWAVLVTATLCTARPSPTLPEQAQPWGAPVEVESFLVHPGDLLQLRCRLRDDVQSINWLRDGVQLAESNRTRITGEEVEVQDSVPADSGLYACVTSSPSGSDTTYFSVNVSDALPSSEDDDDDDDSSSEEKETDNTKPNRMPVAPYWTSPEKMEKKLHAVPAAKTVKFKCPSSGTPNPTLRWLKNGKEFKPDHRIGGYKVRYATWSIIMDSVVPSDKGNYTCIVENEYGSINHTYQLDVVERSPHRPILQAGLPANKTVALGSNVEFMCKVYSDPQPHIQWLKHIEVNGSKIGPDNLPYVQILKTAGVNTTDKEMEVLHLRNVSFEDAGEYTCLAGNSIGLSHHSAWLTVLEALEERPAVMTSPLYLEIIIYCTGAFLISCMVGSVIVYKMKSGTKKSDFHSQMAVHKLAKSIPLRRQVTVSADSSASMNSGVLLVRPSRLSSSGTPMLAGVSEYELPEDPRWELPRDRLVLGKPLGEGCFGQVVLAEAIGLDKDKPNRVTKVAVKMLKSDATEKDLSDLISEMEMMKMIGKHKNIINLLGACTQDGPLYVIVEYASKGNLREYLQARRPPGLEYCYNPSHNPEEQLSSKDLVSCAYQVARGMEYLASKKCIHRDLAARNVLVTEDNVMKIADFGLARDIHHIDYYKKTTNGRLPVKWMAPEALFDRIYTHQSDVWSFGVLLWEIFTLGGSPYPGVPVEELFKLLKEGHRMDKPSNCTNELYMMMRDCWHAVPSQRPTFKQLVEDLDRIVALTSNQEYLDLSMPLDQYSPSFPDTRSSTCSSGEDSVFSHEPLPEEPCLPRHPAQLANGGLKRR

GGEEFYVHYVG [KAT8_Y90_R86G] was tested, and the phosphorylation enrichment [1] was 0.681, the phosphorylation enrichment [2] was 0.455 and the phosphorylation enrichment [3] was 0.547. For the same sequence, the phosphorylation enrichment [4] was 1.32, the phosphorylation enrichment [5] was 0.565 and the phosphorylation enrichment [6] was 1.22. It also gave a phosphorylation enrichment [7] of 0.627, a phosphorylation enrichment [8] of 0.532 and a phosphorylation enrichment [9] of 1.21. It also gave a phosphorylation enrichment [10] of 0.488, a phosphorylation enrichment [11] of 0.849 and a phosphorylation enrichment [12] of 0.741. For the same sequence, the phosphorylation enrichment [13] was 0.532, the SH2 binding enrichment [14] was 1.89 and the SH2 binding enrichment [15] was 0.931. It also gave an SH2 binding enrichment [16] of 0.495.
Work on GGFTCYSDGKK [PROS1_Y266_C267S_YF] yielded a phosphorylation enrichment [1] of 0.555, a phosphorylation enrichment [2] of 0.437 and a phosphorylation enrichment [3] of 0.55. For the same sequence, the phosphorylation enrichment [4] was 1.3, the phosphorylation enrichment [5] was 0.471 and the phosphorylation enrichment [6] was 1.37. For the same sequence, the phosphorylation enrichment [7] was 0.689, the phosphorylation enrichment [8] was 0.654 and the phosphorylation enrichment [9] was 1.51. The phosphorylation enrichment [10] was 0.55, the phosphorylation enrichment [11] was 0.933 and the phosphorylation enrichment [12] was 0.856. The phosphorylation enrichment [13] was 0.586, the SH2 binding enrichment [14] was 0.547 and the SH2 binding enrichment [15] was 0.711. The SH2 binding enrichment [16] was 0.317.
GGGFGYQKTRK [DDX18_Y643_K647R] gave a phosphorylation enrichment [1] of 0.422, a phosphorylation enrichment [2] of 0.514 and a phosphorylation enrichment [3] of 0.401. For the same sequence, the phosphorylation enrichment [4] was 0.597, the phosphorylation enrichment [5] was 0.492 and the phosphorylation enrichment [6] was 0.57. For the same sequence, the phosphorylation enrichment [7] was 0.629, the phosphorylation enrichment [8] was 0.422 and the phosphorylation enrichment [9] was 0.613. It also gave a phosphorylation enrichment [10] of 0.393, a phosphorylation enrichment [11] of 0.46 and a phosphorylation enrichment [12] of 0.719. It also gave a phosphorylation enrichment [13] of 0.302, an SH2 binding enrichment [14] of 0.461 and an SH2 binding enrichment [15] of 0.976. It also gave an SH2 binding enrichment [16] of 0.536.
Sequence GGMAKYTRLHN [EHHADH_Y4_E3K] has a phosphorylation enrichment [1] of 0.39, a phosphorylation enrichment [2] of 0.407 and a phosphorylation enrichment [3] of 0.318. It also gave a phosphorylation enrichment [4] of 0.492, a phosphorylation enrichment [5] of 0.334 and a phosphorylation enrichment [6] of 0.641. It also gave a phosphorylation enrichment [7] of 0.351, a phosphorylation enrichment [8] of 0.343 and a phosphorylation enrichment [9] of 0.542. The phosphorylation enrichment [10] was 0.343, the phosphorylation enrichment [11] was 0.398 and the phosphorylation enrichment [12] was 0.491. The phosphorylation enrichment [13] was 0.458, the SH2 binding enrichment [14] was 1.42 and the SH2 binding enrichment [15] was 1.12. It also gave an SH2 binding enrichment [16] of 1.43.
For GGPAGYLWRAS [PKLR_Y38_R40W], the phosphorylation enrichment [1] was 0.413, the phosphorylation enrichment [2] was 0.392 and the phosphorylation enrichment [3] was 0.384. It also gave a phosphorylation enrichment [4] of 0.683, a phosphorylation enrichment [5] of 0.344 and a phosphorylation enrichment [6] of 0.601. The phosphorylation enrichment [7] was 0.454, the phosphorylation enrichment [8] was 0.392 and the phosphorylation enrichment [9] was 0.941. The phosphorylation enrichment [10] was 0.371, the phosphorylation enrichment [11] was 0.505 and the phosphorylation enrichment [12] was 0.529. For the same sequence, the phosphorylation enrichment [13] was 0.439, the SH2 binding enrichment [14] was 0.729 and the SH2 binding enrichment [15] was 0.981. For the same sequence, the SH2 binding enrichment [16] was 0.594.
In the case of GGYTRYCDGKK [PROS1_Y266_C265R], the phosphorylation enrichment [1] is reported as 0.37, the phosphorylation enrichment [2] is reported as 0.4 and the phosphorylation enrichment [3] is reported as 0.365. It also gave a phosphorylation enrichment [4] of 0.649, a phosphorylation enrichment [5] of 0.338 and a phosphorylation enrichment [6] of 0.759. The phosphorylation enrichment [7] was 0.347, the phosphorylation enrichment [8] was 0.357 and the phosphorylation enrichment [9] was 0.585. The phosphorylation enrichment [10] was 0.446, the phosphorylation enrichment [11] was 0.436 and the phosphorylation enrichment [12] was 0.528. It also gave a phosphorylation enrichment [13] of 0.386, an SH2 binding enrichment [14] of 0.889 and an SH2 binding enrichment [15] of 1.31. For the same sequence, the SH2 binding enrichment [16] was 1.21.
Sequence GKLIFHDLRGE [KARS1_Y145_Y145H] has a phosphorylation enrichment [1] of 0.37, a phosphorylation enrichment [2] of 0.383 and a phosphorylation enrichment [3] of 0.369. It also gave a phosphorylation enrichment [4] of 0.696, a phosphorylation enrichment [5] of 0.399 and a phosphorylation enrichment [6] of 0.632. It also gave a phosphorylation enrichment [7] of 0.475, a phosphorylation enrichment [8] of 0.389 and a phosphorylation enrichment [9] of 0.802. For the same sequence, the phosphorylation enrichment [10] was 0.389, the phosphorylation enrichment [11] was 0.575 and the phosphorylation enrichment [12] was 0.504. For the same sequence, the phosphorylation enrichment [13] was 0.405, the SH2 binding enrichment [14] was 0.824 and the SH2 binding enrichment [15] was 0.825. It also gave an SH2 binding enrichment [16] of 0.473.
Sequence GKTFTYHSVFF [ZNF80_Y200_R201H] has a phosphorylation enrichment [1] of 0.618, a phosphorylation enrichment [2] of 0.46 and a phosphorylation enrichment [3] of 0.596. For the same sequence, the phosphorylation enrichment [4] was 1.31, the phosphorylation enrichment [5] was 0.999 and the phosphorylation enrichment [6] was 1.3. It also gave a phosphorylation enrichment [7] of 0.602, a phosphorylation enrichment [8] of 0.655 and a phosphorylation enrichment [9] of 1.25. The phosphorylation enrichment [10] was 0.592, the phosphorylation enrichment [11] was 0.904 and the phosphorylation enrichment [12] was 1. For the same sequence, the phosphorylation enrichment [13] was 0.547, the SH2 binding enrichment [14] was 0.645 and the SH2 binding enrichment [15] was 0.89. For the same sequence, the SH2 binding enrichment [16] was 0.655.
For GKVADYIPQLA [GLS_Y249], the phosphorylation enrichment [1] was 0.478, the phosphorylation enrichment [2] was 0.396 and the phosphorylation enrichment [3] was 0.514. The phosphorylation enrichment [4] was 0.634, the phosphorylation enrichment [5] was 0.349 and the phosphorylation enrichment [6] was 0.5. For the same sequence, the phosphorylation enrichment [7] was 0.51, the phosphorylation enrichment [8] was 0.453 and the phosphorylation enrichment [9] was 0.684. It also gave a phosphorylation enrichment [10] of 0.408, a phosphorylation enrichment [11] of 0.538 and a phosphorylation enrichment [12] of 0.483. For the same sequence, the phosphorylation enrichment [13] was 0.477, the SH2 binding enrichment [14] was 0.924 and the SH2 binding enrichment [15] was 0.882. The SH2 binding enrichment [16] was 0.481.
GKVFVYHGSSL [ITGA7_Y458_I457V] showed a phosphorylation enrichment [1] of 0.514, a phosphorylation enrichment [2] of 0.435 and a phosphorylation enrichment [3] of 0.449. For the same sequence, the phosphorylation enrichment [4] was 1.03, the phosphorylation enrichment [5] was 0.349 and the phosphorylation enrichment [6] was 0.674. It also gave a phosphorylation enrichment [7] of 0.564, a phosphorylation enrichment [8] of 0.476 and a phosphorylation enrichment [9] of 1.06. For the same sequence, the phosphorylation enrichment [10] was 0.434, the phosphorylation enrichment [11] was 0.676 and the phosphorylation enrichment [12] was 0.563. For the same sequence, the phosphorylation enrichment [13] was 0.523, the SH2 binding enrichment [14] was 0.64 and the SH2 binding enrichment [15] was 1.06. The SH2 binding enrichment [16] was 0.638.
Sequence GLDGSYLLRYS [SH2D1A_Y29_D33Y] has a phosphorylation enrichment [1] of 0.478, a phosphorylation enrichment [2] of 0.434 and a phosphorylation enrichment [3] of 0.485. For the same sequence, the phosphorylation enrichment [4] was 0.685, the phosphorylation enrichment [5] was 0.441 and the phosphorylation enrichment [6] was 0.665. For the same sequence, the phosphorylation enrichment [7] was 0.436, the phosphorylation enrichment [8] was 0.415 and the phosphorylation enrichment [9] was 0.979. The phosphorylation enrichment [10] was 0.512, the phosphorylation enrichment [11] was 0.57 and the phosphorylation enrichment [12] was 0.542. The phosphorylation enrichment [13] was 0.455, the SH2 binding enrichment [14] was 1.14 and the SH2 binding enrichment [15] was 0.97. The SH2 binding enrichment [16] was 0.438.
Work on GLIPAYHRVIV [NMNAT1_Y64_M69V] yielded a phosphorylation enrichment [1] of 0.627, a phosphorylation enrichment [2] of 0.437 and a phosphorylation enrichment [3] of 0.458. The phosphorylation enrichment [4] was 0.804, the phosphorylation enrichment [5] was 0.371 and the phosphorylation enrichment [6] was 1.15. It also gave a phosphorylation enrichment [7] of 0.515, a phosphorylation enrichment [8] of 0.44 and a phosphorylation enrichment [9] of 0.933. For the same sequence, the phosphorylation enrichment [10] was 0.481, the phosphorylation enrichment [11] was 0.639 and the phosphorylation enrichment [12] was 0.622. For the same sequence, the phosphorylation enrichment [13] was 0.453, the SH2 binding enrichment [14] was 0.957 and the SH2 binding enrichment [15] was 0.987. The SH2 binding enrichment [16] was 1.26.
Work on GLRQSYFVEAQ [APCS_Y142_G141S] yielded a phosphorylation enrichment [1] of 0.612, a phosphorylation enrichment [2] of 0.543 and a phosphorylation enrichment [3] of 0.457. For the same sequence, the phosphorylation enrichment [4] was 0.717, the phosphorylation enrichment [5] was 0.453 and the phosphorylation enrichment [6] was 0.596. For the same sequence, the phosphorylation enrichment [7] was 0.532, the phosphorylation enrichment [8] was 0.378 and the phosphorylation enrichment [9] was 0.825. It also gave a phosphorylation enrichment [10] of 0.505, a phosphorylation enrichment [11] of 0.697 and a phosphorylation enrichment [12] of 0.48. It also gave a phosphorylation enrichment [13] of 0.491, an SH2 binding enrichment [14] of 0.726 and an SH2 binding enrichment [15] of 0.686. For the same sequence, the SH2 binding enrichment [16] was 0.681.
GLSSAYGGLTS [KRT8_Y427] was tested, and the phosphorylation enrichment [1] was 0.351, the phosphorylation enrichment [2] was 0.341 and the phosphorylation enrichment [3] was 0.513. The phosphorylation enrichment [4] was 0.516, the phosphorylation enrichment [5] was 0.469 and the phosphorylation enrichment [6] was 0.506. For the same sequence, the phosphorylation enrichment [7] was 0.555, the phosphorylation enrichment [8] was 0.422 and the phosphorylation enrichment [9] was 0.584. The phosphorylation enrichment [10] was 0.545, the phosphorylation enrichment [11] was 0.449 and the phosphorylation enrichment [12] was 0.543. It also gave a phosphorylation enrichment [13] of 0.347, an SH2 binding enrichment [14] of 0.572 and an SH2 binding enrichment [15] of 0.876. For the same sequence, the SH2 binding enrichment [16] was 0.42.
